Data as given in publication PMC12520543, “An Apple Susceptibility‐Related LRR Receptor‐Like Kinase MdRLKT21 Activates Plant Immunity by Hijacking a Trans‐Kingdom Fungal microRNA‐Like RNA” (Advanced Science, 2025).

Target: T1, GST-MdRFP1-His (apple (M. domestica), labeled with the Monolith NT Protein Labeling Kit RED)
T1 construct: MdRFP1, apple C3HC4-type RING finger protein 1, GenBank XP_017184215.2; Vector pGEX-6P-1; The results name GST-MdRFP1-His for the MST; the MST methods say only 'MdRFP1 was purified and labeled'; also called labeled MdRFP1; source: E. coli BL21 (DE3), purified (glutathione agarose and HisPur Ni-NTA resin are named for the set of recombinant proteins); not shown: GST, N-terminal, kept; His, …
Test: MST; labeled MdRFP1 (Monolith NT Protein Labeling Kit RED) incubated with a gradient dilution of MdRLKT21-KD for 30 min at RT; standard treated capillaries; Monolith NT.115
Conditions: both partners purified

T1 sequence (main, as listed by the source): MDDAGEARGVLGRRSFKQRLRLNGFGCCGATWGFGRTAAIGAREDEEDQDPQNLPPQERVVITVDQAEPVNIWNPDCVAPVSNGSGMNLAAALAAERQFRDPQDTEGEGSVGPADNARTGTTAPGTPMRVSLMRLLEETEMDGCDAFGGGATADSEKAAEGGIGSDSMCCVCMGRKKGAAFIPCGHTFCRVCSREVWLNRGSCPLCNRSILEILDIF

- Kd: 14 ± 4.24 nM
B1: GST-MdRLKT21-KD (domain or fragment)
chain: RVRSRAKEGKTGKEKVVKEVAEVVVVEEGEGQNGKFVVLDEGFGLDLEDLLRASAYVVGKSRSGITYRVVAGSGGKGPGAAPSVVAVRRLSEGDATWRLKEFEAEVEAIGKVVHPNIVRLRAYYYASDEKLLVTDFIRNGSLYNALHGGPSNSLPPLPWTARLKIAQGTARGLMYIHEHSTRKYVHGNIKSTKILLNDDLQPYISGFGLARLMLGTSKFTTSASRRQNSNESIVASGLVVPTSSTIYLAPEARISRSKFTQKCDVYSFGIVLLEILTGRLPDEGLENGGKGLESLVRKTFRDERPLSEIIDPALLQEVYAKKQVVEAFHIALNCTELDPELRPRMKTVSESLDRLKLQC
